Measurements as given in CN113621064A (FUZHOU MAIXIN BIOTECHNOLOGY DEV CO LTD, dated 2021).

Molecular target: T1, CD117蛋白 (c-kit, 干细胞因子受体) (human, UniProt P10721 26-976)
T1 construct: whole, on cells; Endogenous antigen in tissue sections (immunohistochemistry); The abstract names it as human; also called 人CD117抗原
Test: immunohistochemistry on a tissue array of 28 gastrointestinal stromal tumours

T1 sequence (P10721 26-976): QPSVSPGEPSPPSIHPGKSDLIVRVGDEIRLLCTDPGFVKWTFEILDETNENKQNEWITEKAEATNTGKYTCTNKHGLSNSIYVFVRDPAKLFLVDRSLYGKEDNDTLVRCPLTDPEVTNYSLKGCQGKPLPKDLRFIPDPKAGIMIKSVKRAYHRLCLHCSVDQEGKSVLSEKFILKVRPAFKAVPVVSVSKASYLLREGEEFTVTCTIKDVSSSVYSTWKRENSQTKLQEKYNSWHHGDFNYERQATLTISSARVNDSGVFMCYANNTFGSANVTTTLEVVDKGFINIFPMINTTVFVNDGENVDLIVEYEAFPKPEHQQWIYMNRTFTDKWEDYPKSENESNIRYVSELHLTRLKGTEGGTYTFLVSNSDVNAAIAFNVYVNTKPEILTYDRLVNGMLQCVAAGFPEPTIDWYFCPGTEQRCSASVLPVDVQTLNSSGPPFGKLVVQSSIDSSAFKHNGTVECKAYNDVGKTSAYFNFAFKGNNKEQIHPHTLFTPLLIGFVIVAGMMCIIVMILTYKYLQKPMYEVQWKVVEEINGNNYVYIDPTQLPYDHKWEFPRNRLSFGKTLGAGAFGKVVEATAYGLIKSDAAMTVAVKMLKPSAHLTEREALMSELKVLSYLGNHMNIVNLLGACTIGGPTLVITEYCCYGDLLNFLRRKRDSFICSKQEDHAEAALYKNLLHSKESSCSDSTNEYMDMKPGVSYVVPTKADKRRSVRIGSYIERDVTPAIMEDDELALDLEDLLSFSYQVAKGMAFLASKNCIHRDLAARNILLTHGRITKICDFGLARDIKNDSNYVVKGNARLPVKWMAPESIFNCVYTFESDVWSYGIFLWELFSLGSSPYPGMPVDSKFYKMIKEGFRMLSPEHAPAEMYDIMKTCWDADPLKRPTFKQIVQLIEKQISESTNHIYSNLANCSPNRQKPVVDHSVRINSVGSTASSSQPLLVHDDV

B1: 抗CD117蛋白单克隆抗体 (小鼠杂交瘤细胞株33G5分泌, CGMCC NO 21977) (antibody, V domains shown)
VH: EVKLQESGPSLVQPGGSMRLSCVASGFIFSNYWINWVRQSPEMGLEWIAQVKLKSDNYATHYAGSVKGRFTISRDDSKSSVYLQMNNLRPEDTGIYFCLGRLDVWGAGTTVTVSS
VL: DIMLTQSPLSLSVTIGQPASISCKSSQSLLYTDGKTYLNWLLQRPGQSPKLLIYLVSKLDSGVPDRFSGSGSGTDFTLKISRVEAEDLGVYYCLQATHFPQTFGGGTKLEIK
notes: also called CD117(33G5); 33G5分泌的CD117抗体
- binding result: binds
